The test system of one assay is HT29 colon cancer cells. In words: HT29 floater assay (negative selection). The note with it: individual clone reintroduced into HT29 cells. The assay is classed as cell-based. As to the method: HT29 cells were tested for feasibility in the floater cell assay as follows. Briefly, six flasks were inoculated with 6.25×10^5 HT29 cells/flask on Day 0. On Day 1, after the cells had been allowed to adhere to the solid support, two of these flasks were infected with retroviral supernatant containing the retroviral vector pVT324, which includes a selectable drug resistant marker (e.g. neomycin), and which constitutively expresses a green fluorescent protein. Of the remaining four flasks, two were mock infected (i.e. exposed to all of the same reagents/conditions as flasks 1 and 2, minus the retrovirus, see “Example 3C”) and two were left undisturbed. On Day 2, this procedure was repeated (i.e. a double infection). On Day 3 (and subsequently on Day 5) one flask was selected from each of the three groups and processed by separating and counting the floater and adherent cell populations. In the case of the floater cell population, the media was collected, centrifuged at 200×g for 10 minutes, and resuspended in PBS prior to removing a sample for counting on a hemocytometer. For the adherent cell population, cells were first removed from the flask by trypsinization, centrifuged, and then processed for analysis in a fashion analogous to the floater cells. To determine the inherent background level of floater cells present in the population, the ratio of the number of floater cells to the total number of cells (adherent cells+floater cells) was analyzed on both the Day 3 and Day 5 flasks that had not been manipulated. These numbers were compared with the analogous numbers taken from infected and mock-infected flasks to determine whether the retrovirus or transfection procedures altered background floater rates. To determine the susceptibility of HT29 cells to retroviral infection, the fraction of cells that expressed GFP in pVT324 infected flasks was calculated using flow cytometry.
Twenty T175 flasks were seeded with 2.2×10^6 HT29 cells/flask in McCoy's 5A media (Gibco BRL) modified with 10% FBS. On Day 1, each flask was infected (4 μg/ml polybrene, 50% volume) with a retroviral supernatant containing a commercially obtained brain cDNA library (“Example Three” above). On Day 2 the media was changed. On Day 3 both the floater and adherent cell populations were collected (separately) from the twenty flasks. Approximately 652,500 floaters were isolated from a theoretical background of 4.2×10^7 adherents (1.5% floaters) and frozen down for future studies. […] Additional floater cells were then collected Day 5, where the collection and counting procedures were repeated and some 7.8×10^6 floaters and 7.6×10^8 adherents were counted (1.03% floaters). […] The floater populations of Days 3 and 5 were then combined and readied for a genomic DNA prep using a QIAamp kit (Qiagen) following standard procedures. Briefly, some 9×10^6 floater cells in PBS were lysed to release gDNA. This material was passed over a QIAamp column that was then washed several times to remove protein and RNA contaminants. Twenty-seven micrograms of genomic DNA were then eluted from the columns with dH2O and treated with RNAse A to eliminate any RNA contamination. This gDNA was then subjected to PCR procedures to amplify the library sequences encoded therein. […]

Assay [1] relates to HuVECs (Human Umbilical Vein Endothelial Cells). In words: Cell viability of HuVECs after introduction of clone. The assay is classed as cell-based. The note with it: 16 hour time point. The source says: In addition to cycling these library sequences (obtained as described above) through an additional round of negative selections, 50 clones were taken from each of the Cycle 5, day five pools for sequence analysis. […] Both of the BID clones obtained from these negative selections encode N-terminal truncations of the native protein (BID Clone #1 encodes amino acids 33-195, BID Clone #2 encodes amino acids 76-195, See FIG. 9). BID clone #1 was reintroduced into fresh, naive HT29 cells and floater rates were compared with cells that had been mock infected or infected with the control vector, pVT324. […] In a similar experiment, BID clone #1 was introduced into HuVECs (Human Umbilical Vein Endothelial Cells, Clonetics/Biowhittaker) and cell viability was followed over the course of 16 hours. While control cells gave a background of 1% cell death at the 16 hour time point, 80% of the cells in the BID clone #1-infected culture died during the same period of time.

B1: BID clone #1: N-terminal truncation of BID (BH3 Interacting Domain Death Agonist), encodes amino acids 33-195 (protein, UniProt P55957 33-195, looked up, fragment)
chain: FRRELDALGHELPVLAPQWEGYDELQTDGNRSSHSRLGRIEADSESQEDIIRNIARHLAQVGDSMDRSIPPGLVNGLALQLRNTSRSEEDRNRDLATALEQLLQAYPRDMEKEKTMLVLALLLAKKVASHTPSLLRDVFHTTVNFINQNLRTYVRSLARNGMD
Turning to B1, in the assay with HT29 colon cancer cells, the floater rate entry is “roughly 18%”. The same molecule gave a cells that died in assay [1] of 80%.

The record behind these values is US6582899B1, “Methods for identifying agents that cause a lethal phenotype, and agents thereof” (Deltagen Proteomics, Inc., priority 2000, dated 2003).
